System: MS2 coat protein
Experiment: apparent KD of MS2 coat protein; designed switch direction (-1 OFF switch, 1 ON switch): 1; higher = weaker reporter binding
Method in brief: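 Designed RNA switches with common flanks were transcribed on Illumina chips by stalled E. coli RNA polymerase and titrated with SNAP-549-labelled MS2 coat protein, from 0.7 or 1.5 nM doubling to 3 µM, in Tris-HCl pH 7.5 buffer with KCl, MgCl2, BSA, DTT, tRNA and Tween-20. Steps lasted 0.8–1.5 h (lowest) to 10–20 min (highest). Titrations ran without input, with 200 uM small-molecule ligand, or with an oligonucleotide input. Normalised cluster fluorescence was curve-fitted, and apparent KD is the per-design median over clusters.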

[1] = input ligand: microRNA oligo, concentration not stated
[2] = Eterna round: R95, input ligand: FMN 200 uM
[3] = Eterna round: R95, input ligand: microRNA oligo, concentration not stated
[4] = Eterna round: R95, input ligand: none

Sequence: GUGGUGGGUUGAGGAUAUUGGUUGUUGUUGUCCCACAUGAGGAUCACCCAUGUGGGUUGUGGUUUUGAGAAGGUUGGUUGCUGG [salish99_SSNG2_r04_051] (Eterna round: R96, puzzle: Same State NG 2)
- apparent KD of MS2 coat protein [1]: 14.4 nM

Sequence: UGAAUAGUUACAGGAUAUGAGCCGAAAAUUGGGUCAGAAGGGUGGGUGUUGUGCGCUAUGUGCUACAUGAGGAUCACCCAUGUU [SameState NG1 #35] (Eterna round: R96, puzzle: Same State NG 1)
- apparent KD of MS2 coat protein (input ligand: FMN 200 uM): 1210 nM
- apparent KD of MS2 coat protein [1]: 23.3 nM
- apparent KD of MS2 coat protein (input ligand: none): 208 nM

Sequence: AGUCCGGCCUGAGCUGGACUGAAGCAUGUACAUGAGGAUCACCCAUGUUCAUGUGCAGGCUUUUUGCUCGUCUUGUG [JL-shm-2.04 JL mod] (Eterna round: R96, puzzle: Sensor for hsa-mir-208a)
- apparent KD of MS2 coat protein (input ligand: FMN 200 uM): 115 nM
- apparent KD of MS2 coat protein [1]: 12.6 nM
- apparent KD of MS2 coat protein (input ligand: none): 103 nM

Sequence: AACCUACAUGAGGAUCACCCAUGUGUCUAAGGCACAGGAUAUCGACAGGCAAGACACCUGCGAGAAGGGUGACCUA [Diatater] (puzzle: Same State 1)
- apparent KD of MS2 coat protein [2]: 56.2 nM
- apparent KD of MS2 coat protein [3]: 24 nM
- apparent KD of MS2 coat protein [4]: 48.7 nM

Sequence: AGCUAUUAAUCAGGAUAUAGGGACAUGAGGAUCACCCAUGUAUAAAUGAUGAAAUGUGGUCACCUCUAGAAGGGAUUACUAACA [SameState NG2 #43] (Eterna round: R96, puzzle: Same State NG 2)
- apparent KD of MS2 coat protein (input ligand: FMN 200 uM): 42.7 nM
- apparent KD of MS2 coat protein [1]: 29 nM
- apparent KD of MS2 coat protein (input ligand: none): 40.4 nM

Sequence: CGUCCAGCCUGAGCUGGACAAAAGCAUGUACAUGAGGAUCACCCAUGUUCAUGUACAAGCUUUUUGCUCGUCUUAUG [salish99_208a_r3_054] (puzzle: Sensor for hsa-mir-208a)
- apparent KD of MS2 coat protein [2]: 662 nM
- apparent KD of MS2 coat protein [3]: 17.9 nM
- apparent KD of MS2 coat protein [4]: 1110 nM

Sequence: UCUUGGUUUUUGCUCGUUUUUUGUGUUGAACAUGAGGAUCACCCAUGUAUUGUACAGUCCAAUUUAAUAAUGGUCCG [JMF 53] (puzzle: Sensor for hsa-mir-208a)
- apparent KD of MS2 coat protein [2]: 34.2 nM
- apparent KD of MS2 coat protein [3]: 25.4 nM
- apparent KD of MS2 coat protein [4]: 46.7 nM

Sequence: AUACUCAUGUAAGGAUAUGCAGCCGAAACGGCUGCAGAAGGUACUAUAAUACAUGAGGAUCACCCAUGUCAAAAUAAAAUAGUU [Mat - Same State NG 1 - JL mod - D100] (Eterna round: R96, puzzle: Same State NG 1)
- apparent KD of MS2 coat protein (input ligand: FMN 200 uM): 20.6 nM
- apparent KD of MS2 coat protein [1]: 25.4 nM
- apparent KD of MS2 coat protein (input ligand: none): 25 nM

Sequence: GCUCGAUGAGCGUUUUACAUGAGGAUCACCCAUGUACGUGGGCAGGAUAUUUACGUGCGGUGUGUAGAGAAGGGCCCAUCGAGC [SameState NG3 #70] (Eterna round: R96, puzzle: Same State NG 3)
- apparent KD of MS2 coat protein (input ligand: FMN 200 uM): 48.3 nM
- apparent KD of MS2 coat protein [1]: 243 nM
- apparent KD of MS2 coat protein (input ligand: none): 279 nM

Sequence: UAGAAACAUGAGGAUCACCCAUGUGUCAGAGACAUAGGAUAUCGUAACCAGCGCCGGAUACGAGAAGGGUGGUAAA [Enraxe] (puzzle: Same State 1)
- apparent KD of MS2 coat protein [2]: 156 nM
- apparent KD of MS2 coat protein [3]: 38.5 nM
- apparent KD of MS2 coat protein [4]: 51.3 nM

Sequence: UGACACACGGCAGGAUAUGCUUAGCAAAGCUAAGCAGAAGGGCCUCAUGUCGUGGAAACGUGACAUGAGGAUCACCCAUGUCGC [Omei SS(NG)1 Cv4] (Eterna round: R96, puzzle: Same State NG 1)
- apparent KD of MS2 coat protein (input ligand: FMN 200 uM): 122 nM
- apparent KD of MS2 coat protein [1]: 6.01 nM
- apparent KD of MS2 coat protein (input ligand: none): 17.7 nM

Sequence: GAGUUUGAACUACAGGAUAUAUAGCAGAUGACAUGAGGAUCACCCAUGUAAGAGAAAGGAGGGAAAUAGAAGGGUAUGGGAGGUG [JR_SS2_Sub035] (puzzle: Same State 2)
- apparent KD of MS2 coat protein [2]: 33.7 nM
- apparent KD of MS2 coat protein [3]: 20.4 nM
- apparent KD of MS2 coat protein [4]: 24.3 nM

Sequence: GGUAAACAUGAGGAUCACCCAUGUAAUAAUAUGGGAGGAUAUGGGAAUUAAUUAAUUAAACCAGAAGGCCUAAUUG [Mat - Same State 1 - D85] (Eterna round: R96, puzzle: Same State 1)
- apparent KD of MS2 coat protein (input ligand: FMN 200 uM): 32 nM
- apparent KD of MS2 coat protein [1]: 104 nM
- apparent KD of MS2 coat protein (input ligand: none): 135 nM

Sequence: UGACACACGGCAGGAUAUCGUUAGCAAAGCUAACGAGAAGGGCCUCAUGUCGUGGAAACGUGACAUGAGGAUCACCCAUGUCGC [Omei SS(NG)1 Cv9] (Eterna round: R96, puzzle: Same State NG 1)
- apparent KD of MS2 coat protein (input ligand: FMN 200 uM): 272 nM
- apparent KD of MS2 coat protein [1]: 27.3 nM
- apparent KD of MS2 coat protein (input ligand: none): 58.5 nM

Sequence: GUUACAUGAGGAUCACCCAUGUGUGUGUGGGAGUAAGUGGCUUAGGAUAUCUAUGAUUUAAGUUAAGAGAAGGAAGAUUGUUGU [SS-NG3-LRO02] (Eterna round: R96, puzzle: Same State NG 3)
- apparent KD of MS2 coat protein (input ligand: FMN 200 uM): 194 nM
- apparent KD of MS2 coat protein [1]: 204 nM
- apparent KD of MS2 coat protein (input ligand: none): 272 nM

Sequence: UUAAUAAUGAUAGGAUAUACAUGAGGAAUUCUCGUAGAAGGAUCAUGACAUGAGGAUCACCCAUGUAACGCUCAGAAGAGCGUA [Mat - Same State NG 1 - JL mod - D37] (Eterna round: R96, puzzle: Same State NG 1)
- apparent KD of MS2 coat protein (input ligand: FMN 200 uM): 493 nM
- apparent KD of MS2 coat protein [1]: 184 nM
- apparent KD of MS2 coat protein (input ligand: none): 730 nM

Sequence: GGGCCAGCUUGUGCUGGGCCUUCGCAUGCACAUGAGGAUCACCCAUGUCGUGUACAUGCUUGGUGCUCGUCUUUAAA [Photon Torp-12] (puzzle: Sensor for hsa-mir-208a)
- apparent KD of MS2 coat protein [2]: 399 nM
- apparent KD of MS2 coat protein [3]: 15.7 nM
- apparent KD of MS2 coat protein [4]: 266 nM

Sequence: GUUACAUGAGGAUCACCCAUGUAUGUGUGGGAGUAAGUGUCUUAGGAUAUCUAGCAUUUAAUUUAAGAGAAGGAAGAUUGUUGU [JMF's solution 51] (Eterna round: R96, puzzle: Same State NG 3)
- apparent KD of MS2 coat protein (input ligand: FMN 200 uM): 79.7 nM
- apparent KD of MS2 coat protein [1]: 59.9 nM
- apparent KD of MS2 coat protein (input ligand: none): 84.1 nM

Sequence: AGUCCAGCCUGAGCUGGACAAAAGCAUGUACAUGAGGAUCACCCAUGUCAUGUACAAGCUUUUUGCUCGUCUUAUUA [Mat - hsa-mir-208a - Mod of JL - D24] (puzzle: Sensor for hsa-mir-208a)
- apparent KD of MS2 coat protein [2]: 694 nM
- apparent KD of MS2 coat protein [3]: 16.3 nM
- apparent KD of MS2 coat protein [4]: 722 nM

Sequence: AUAAGUUCGAUGCUCGUCUCUCCGUACAAACAUGAGGAUCACCCAUGUGAUCGGGCAGUAGCCCGAUCAGUAUGGCC [Soriin] (puzzle: Sensor for hsa-mir-208a)
- apparent KD of MS2 coat protein [2]: 39.3 nM
- apparent KD of MS2 coat protein [3]: 20.5 nM
- apparent KD of MS2 coat protein [4]: 47.8 nM

Sequence: GCUCGAUGAGCGUUCUACAUGAGGAUCACCCAUGUUCGUGGGCAGGAUAUUUACGUGCAGAGUGUAGAGAAGGGCCCAUCGAGC [SameState NG3 #67] (Eterna round: R96, puzzle: Same State NG 3)
- apparent KD of MS2 coat protein (input ligand: FMN 200 uM): 1260 nM
- apparent KD of MS2 coat protein [1]: 270 nM
- apparent KD of MS2 coat protein (input ligand: none): 196 nM

Sequence: AGUAGUUUAACAUGAGGAUCACCCAUGUAUGUAUAUGUAACCUAGGAUAUGGAGGUUUUAUUUAACCAGAAGGAGGAUUGUUUA [JR_SSNG3_Sub043] (Eterna round: R96, puzzle: Same State NG 3)
- apparent KD of MS2 coat protein (input ligand: FMN 200 uM): 18.3 nM
- apparent KD of MS2 coat protein [1]: 15.8 nM
- apparent KD of MS2 coat protein (input ligand: none): 20.7 nM

Sequence: GGGAAACCUCAAGGAUAUGCUACCGUUUCGGUAGCAGAAGGUGAUCACAUGAGGAUCACCCAUGUAUGCAUGCGUGAGCGUGCU [JL SSNG1 3.57] (Eterna round: R96, puzzle: Same State NG 1)
- apparent KD of MS2 coat protein (input ligand: FMN 200 uM): 42.6 nM
- apparent KD of MS2 coat protein [1]: 71.3 nM
- apparent KD of MS2 coat protein (input ligand: none): 47 nM

Sequence: AAUUAUUAACAUGAGGAUCACCCAUGUAUUACUUCAUGUUUUUGCUCGUCUAUUAUUAUUAUUAUUAUUAUUAUUAA [Most simple design] (puzzle: Sensor for hsa-mir-208a version 2)
- apparent KD of MS2 coat protein [2]: 282 nM
- apparent KD of MS2 coat protein [3]: 40.1 nM
- apparent KD of MS2 coat protein [4]: 340 nM

Sequence: GUCAGGCAAGCUUUUUUCUCGUAGUGUAAACAUGAGGAUCACCCAUGUGCUCGCCCUGGAUCUUUGGAUCGCGGAAA [Xeatesis] (puzzle: Sensor for hsa-mir-208a)
- apparent KD of MS2 coat protein [2]: 34.6 nM
- apparent KD of MS2 coat protein [3]: 19.8 nM
- apparent KD of MS2 coat protein [4]: 36.5 nM

Sequence: GUGGUGCUUCUAGGAUAUUCAGCGGCCCUCACAUGAGGAUCACCCAUGUUCACAAGAGAAACCAUGAAGAAGGAGAACUACAAU [Eternabot solution 42] (Eterna round: R96, puzzle: Same State NG 2)
- apparent KD of MS2 coat protein (input ligand: FMN 200 uM): 45.6 nM
- apparent KD of MS2 coat protein [1]: 39.9 nM
- apparent KD of MS2 coat protein (input ligand: none): 55.8 nM

Sequence: CGUCGUUUGCUAGGAUAUCGCUAUACAUGAGGAUCACCCAUGUUUACCACGCUGGUUUUUCAUACCGAGAAGGAUUCUGAUGUU [salish99_SSNG02_r04_018] (Eterna round: R96, puzzle: Same State NG 2)
- apparent KD of MS2 coat protein (input ligand: FMN 200 uM): 24 nM
- apparent KD of MS2 coat protein [1]: 28.7 nM
- apparent KD of MS2 coat protein (input ligand: none): 34.1 nM

Sequence: CGGAGACGUCAAGGAUAUGCUACCGUUUCGGUAGCAGAAGGUGAUCACAUGAGGAUCACCCAUGUAUGCAUGCGUGAGCGUGCU [JL SSNG1 3.51] (Eterna round: R96, puzzle: Same State NG 1)
- apparent KD of MS2 coat protein (input ligand: FMN 200 uM): 125 nM
- apparent KD of MS2 coat protein [1]: 99.2 nM
- apparent KD of MS2 coat protein (input ligand: none): 21.1 nM

Sequence: AACCAACAAAUAAAACAAGCGUGCUCGUCACAUGAGGAUCACCCAUGUUUAAGCGCUAUUCCUACUUCCUCAGCGCC [Ininceisa] (puzzle: Sensor for hsa-mir-208a)
- apparent KD of MS2 coat protein [2]: 104 nM
- apparent KD of MS2 coat protein [4]: 97.7 nM

Sequence: AGUCCAGCCUGAGCUGGACAAAAGCAUGUACAUGAGGAUCACCCAUGUCAUGUACAAGCUUUUUGCUCGUCUAAAAG [Mat - hsa-mir-208a - Mod of JL - D7] (puzzle: Sensor for hsa-mir-208a)
- apparent KD of MS2 coat protein [2]: 272 nM
- apparent KD of MS2 coat protein [3]: 17.6 nM
- apparent KD of MS2 coat protein [4]: 406 nM

Sequence: AUAUAACAUGAGGAUCACCCAUGUCACUAAAGUCGAGGAUAUGGGCAGGUUAUAUCCGAACCAGAAGGCGAAUUAU [SS1 Teenbexe 6] (Eterna round: R96, puzzle: Same State 1)
- apparent KD of MS2 coat protein (input ligand: FMN 200 uM): 41 nM
- apparent KD of MS2 coat protein [1]: 221 nM
- apparent KD of MS2 coat protein (input ligand: none): 208 nM
